{"source": "patent US20250243257A1", "target": "surface GFP (GFP fused to the PDGF transmembrane domain) [GFP: P42212]", "assay": "cell-based or functional assay", "data": [{"substance": "α-GFP nanobody (LaG16_2) synNotch Gal4VP64 receptor (from UniProt Q01705 1427-1752)", "values": [{"measurement": "fraction of T cells with BFP reporter expression at 24 hours", "result": "> 50", "unit": "%"}]}]}
